Laboratory results taken from the supplement of paper PMC11246515.
± gives the standard deviation of the averaged measurements.

Assay: total protein half-life in vivo (active degradation + dilution); higher = more stable protein
[1] = E. coli NCM3722 delta-clpP delta-lon delta-hslV, growth: N-lim chemostat, doubling time 6 h
[2] = E. coli NCM3722 delta-clpP, growth: N-lim chemostat, doubling time 6 h
[3] = E. coli NCM3722 delta-hslV, growth: N-lim chemostat, doubling time 6 h
[4] = E. coli NCM3722 delta-lon, growth: N-lim chemostat, doubling time 6 h
[5] = E. coli NCM3722 delta-smpB, growth: N-lim chemostat, doubling time 6 h
[6] = wild type E. coli NCM3722, growth: C-lim chemostat, doubling time 3 h
[7] = wild type E. coli NCM3722, growth: C-lim chemostat, doubling time 6 h
[8] = wild type E. coli NCM3722, growth: C-lim chemostat, doubling time 12 h
[9] = wild type E. coli NCM3722, growth: N-lim chemostat, doubling time 6 h
[10] = wild type E. coli NCM3722, growth: N-lim chemostat, doubling time 12 h
[11] = wild type E. coli NCM3722, growth: P-lim chemostat, doubling time 6 h
[12] = wild type E. coli NCM3722, growth: P-lim chemostat, doubling time 12 h

Sequence	total protein half-life in vivo [1]	total protein half-life in vivo [2]	total protein half-life in vivo [3]	total protein half-life in vivo [4]	total protein half-life in vivo [5]	total protein half-life in vivo [6]	total protein half-life in vivo [7]	total protein half-life in vivo [8]	total protein half-life in vivo [9]	total protein half-life in vivo [10]	total protein half-life in vivo [11]	total protein half-life in vivo [12]
MSETAKKVIVGMSGGVDSSVSAWLLQQQGYQVEGLFMKNWEEDDGEEYCTAAADLADAQAVCDKLGIELHTVNFAAEYWDNVFELFLAEYKAGRTPNPDILCNKEIKFKAFLEFAAEDLGADYIATGHYVRRADVDGKSRLLRGLDSNKDQSYFLYTLSHEQIAQSLFPVGELEKPQVRKIAEDLGLVTAKKKDSTGICFIGERKFREFLGRYLPAQPGKIITVDGDEIGEHQGLMYHTLGQRKGLGIGGTKEGTEEPWYVVDKDVENNILVVAQGHEHPRLMSVGLIAQQLHWVDREPFTGTMRCTVKTRYRQTDIPCTVKALDDDRIEVIFDEPVAAVTPGQSAVFYNGEVCLGGGIIEQRLPLPV	4.81 ± 0.17 h	4.73 ± 0.56 h	4.73 ± 0.06 h	5.33 ± 0.43 h	4.71 ± 0.32 h	2.89 ± 0.46 h	7.28 ± 0.86 h	10.4 ± 1.7 h	4.77 ± 0.39 h	8.691 ± 0.075 h	5.5 ± 0.061 h	12 ± 1.4 h
MSKRLPPLNALRVFDAAARHLSFTRAAEELFVTQAAVSHQIKSLEDFLGLKLFRRRNRSLLLTEEGQSYFLDIKEIFSQLTEATRKLQARSAKGALTVSLLPSFAIHWLVPRLSSFNSAYPGIDVRIQAVDRQEDKLADDVDVAIFYGRGNWPGLRVEKLYAEYLLPVCSPLLLTGEKPLKTPEDLAKHTLLHDASRRDWQTYTRQLGLNHINVQQGPIFSHSAMVLQAAIHGQGVALANNVMAQSEIEAGRLVCPFNDVLVSKNAFYLVCHDSQAELGKIAAFRQWILAKAAAEQEKFRFRYEQ [P0A9F6]	5.93 ± 0.27 h		5.94 ± 0.4 h		5.73 ± 0.34 h	3.2 ± 0.13 h	6.59 ± 0.7 h	11 ± 0.54 h	6.86 ± 0.45 h	12.1 ± 0.34 h	5.82 ± 0.081 h	13.3 ± 1.3 h
MHKFTKALAAIGLAAVMSQSAMAENLKLGFLVKQPEEPWFQTEWKFADKAGKDLGFEVIKIAVPDGEKTLNAIDSLAASGAKGFVICTPDPKLGSAIVAKARGYDMKVIAVDDQFVNAKGKPMDTVPLVMMAATKIGERQGQELYKEMQKRGWDVKESAVMAITANELDTARRRTTGSMDALKAAGFPEKQIYQVPTKSNDIPGAFDAANSMLVQHPEVKHWLIVGMNDSTVLGGVRATEGQGFKAADIIGIGINGVDAVSELSKAQATGFYGSLLPSPDVHGYKSSEMLYNWVAKDVEPPKFTEVTDVVLITRDNFKEELEKKGLGGK	5.11 ± 0.82 h	5.55 ± 0.61 h	6.44 ± 0.68 h	6.58 ± 0.93 h	6.54 ± 1.9 h	3.11 ± 0.2 h	6.07 ± 0.47 h	12.2 ± 2.1 h	5.99 ± 0.45 h	12.3 ± 3.3 h	5.91 ± 0.24 h	13.1 ± 0.49 h
MSDTNYAVIYDLHSHTTASDGCLTPEALVHRAVEMRVGTLAITDHDTTAAIAPAREEISRSGLALNLIPGVEISTVWENHEIHIVGLNIDITHPLMCEFLAQQTERRNQRAQLIAERLEKAQIPGALEGAQRLAQGGAVTRGHFARFLVECGKASSMADVFKKYLARGKTGYVPPQWCTIEQAIDVIHHSGGKAVLAHPGRYNLSAKWLKRLVAHFAEHHGDAMEVAQCQQSPNERTQLAALARQHHLWASQGSDFHQPCPWIELGRKLWLPAGVEGVWQLWEQPQNTTEREL	4.2 ± 0.46 h	2.69 ± 0.6 h	2 h	4.05 ± 1.8 h	1.76 ± 0.21 h	1.42 ± 0.78 h	3.06 h	5.96 h	2.24 ± 0.19 h	2.55 ± 0.59 h	2.72 h	4.57 ± 0.45 h
MLTTLIYRSHIRDDEPVKKIEEMVSIANRRNMQSDVTGILLFNGSHFFQLLEGPEEQVKMIYRAICQDPRHYNIVELLCDYAPARRFGKAGMELFDLRLHERDDVLQAVFDKGTSKFQLTYDDRALQFFRTFVLATEQSTYFEIPAEDSWLFIADGSDKELDSCALSPTINDHFAFHPIVDPLSRRIIAFEAIVQKNEDSPSAIAVGQRKDGEIYTADLKSKALAFTMAHALELGDKMISINLLPMTLVNEPDAVSFLLNEIKANALVPEQIIVEFTESEVISRFDEFAEAIKSLKAAGISVAIDHFGAGFAGLLLLSRFQPDRIKISQELITNVHKSGPRQAIIQAIIKCCTSLEIQVSAMGVATPEEWMWLESAGIEMFQGDLFAKAKLNGIPSIAWPEKK	5.85 ± 0.18 h			1.79 ± 0.32 h			2.73 ± 2.2 h				0.443 h	
MKLTIIRLEKFSDQDRIDLQKIWPEYSPSSLQVDDNHRIYAARFNERLLAAVRVTLSGTEGALDSLRVREVTRRRGVGQYLLEEVLRNNPGVSCWWMADAGVEDRGVMTAFMQALGFTAQQGGWEKC	4.23 ± 0.29 h	3.9 ± 0.53 h	5.19 h		3.46 ± 0.21 h		6.2 ± 1.2 h	11.91 ± 0.065 h	3.31 h	6.11 ± 1.4 h	5.99 ± 0.11 h	12.9 ± 2.6 h
